The assay concerns PPIs identified as affected by the SH3 domain deletions. The experiment in a line: Liquid DHFR-PCA low-throughput validation of PPIs affected by SH3 deletion (Fig. S1D-E). Conditions: label = prey, liquid DHFR-PCA, prey _1 = lost, _2 = gained in screen. It counts as cell-based, Saccharomyces cerevisiae. On the procedure: Liquid DHFR-PCA low-throughput experiments were performed to validate the PPIs identified as affected by the SH3 domain deletions in the high-throughput solid DHFR-PCA screen (256 PPIs weaker or lost and 116 PPIs stronger or gained following domain deletions). Mating and the diploid selection were performed as described for the large-scale experiment, with the exception that the plates were in 384 formats. Following the second diploid selection, diploid cells were inoculated in a 96 v-shaped well plate using a robotically manipulated 96 pin tool in a synthetic complete medium with MSG at pH 6.0 with NAT and HPH. After 48 h of growth, optical density (OD) was read using a TECAN Infinite F200 Pro, and dilutions to 1 OD in sterile nanopure water were prepared. Cells were then diluted to 0.1 OD by combining 25 µl of cell suspension at OD = 1 and 225 µl of PCA selection media without agar in a 96-wells plate. Plates were incubated at 30 °C in a TECAN Infinite M Nano and OD was monitored each 15 min for 72 h.

B1: YGR229C_1 (protein, UniProt P32566 1-505, looked up)
Cell wall assembly regulator …: MDLFKRKVKEWVYSLSTDDHYAEYNPDETPTFNMGKRLNSNNGQVNPSQMHLNSVDEEMSMGFQNGVPSNEDINIDEFTSTESNDGVSETLLAWRHIDFWTSEHNPDLNATLSDPCTQNDITHAEEDLEVSFPNPVKASFKIHDGQEDLESMTGTSGLFYGFQLMTLDQVVAMTQAWRNVAKNLNKRSQQGLSHVTSTGSSSSMERLNGNKFKLPNIPDQKSIPPNAVQPVYAHPAWIPLITDNAGNHIGVDLAPGPNGKYAQIITFGRDFDTKFVIAENWGEFLLSFANDLEAGNWYLVDDNDDYFSGDGELVFRDKKSNGPIQDYFEVLKRRTWIKYQENLRSQQQKSQPDTSLQEQKYVPASQKKVAAEQPSTLNAESIKGEDSGSADVQSVQDHESVKIVKTEPSEAETTTVNTESLGQAEHEIKADNVDIKQESERKEDEKQPKVEEKEHVENEHVTESAKKDDDVNKQTEEMNKKEENEIRSDDAKVEEAREEFENIAL
Take B1: the “Ratio (Deletedscore / WTscore)” value by setting is: (bait BBC1) 0.6664; (bait BEM1-1) 0.1513.

B2: YBL007C_1 (protein, UniProt P32790 1-1244, looked up)
Actin cytoskeleton-regulatory …: MTVFLGIYRAVYAYEPQTPEELAIQEDDLLYLLQKSDIDDWWTVKKRVIGSDSEEPVGLVPSTYIEEAPVLKKVRAIYDYEQVQNADEELTFHENDVFDVFDDKDADWLLVKSTVSNEFGFIPGNYVEPENGSTSKQEQAPAAAEAPAATPAAAPASAAVLPTNFLPPPQHNDRARMMQSKEDQAPDEDEEGPPPAMPARPTATTETTDATAAAVRSRTRLSYSDNDNDDEEDDYYYNSNSNNVGNHEYNTEYHSWNVTEIEGRKKKKAKLSIGNNKINFIPQKGTPHEWSIDKLVSYDNEKKHMFLEFVDPYRSLELHTGNTTTCEEIMNIIGEYKGASRDPGLREVEMASKSKKRGIVQYDFMAESQDELTIKSGDKVYILDDKKSKDWWMCQLVDSGKSGLVPAQFIEPVRDKKHTESTASGIIKSIKKNFTKSPSRSRSRSRSKSNANASWKDDELQNDVVGSAAGKRSRKSSLSSHKKNSSATKDFPNPKKSRLWVDRSGTFKVDAEFIGCAKGKIHLHKANGVKIAVAADKLSNEDLAYVEKITGFSLEKFKANDGSSSRGTDSRDSERERRRRLKEQEEKERDRRLKERELYELKKARELLDEERSRLQEKELPPIKPPRPTSTTSVPNTTSVPPAESSNNNNSSNKYDWFEFFLNCGVDVSNCQRYTINFDREQLTEDMMPDINNSMLRTLGLREGDIVRVMKHLDKKFGRENIASIPTNATGNMFSQPDGSLNVATSPETSLPQQLLPQTTSPAQTAPSTSAETDDAWTVKPASKSESNLLSKKSEFTGSMQDLLDLQPLEPKKAAASTPEPNLKDLEPVKTGGTTVPAAPVSSAPVSSAPAPLDPFKTGGNNILPLSTGFVMMPMITGGDMLPMQRTGGFVVPQTTFGMQSQVTGGILPVQKTGNGLIPISNTGGAMMPQTTFGAAATVLPLQKTGGGLIPIATTGGAQFPQTSFNVQGQQQLPTGSILPVQKTANGLISANTGVSMPTVQRTGGTMIPQTSFGVSQQLTGGAMMTQPQNTGSAMMPQTSFNAVPQITGGAMMPQTSFNALPQVTGGAMMPLQRTGGALNTFNTGGAMIPQTSFSSQAQNTGGFRPQSQFGLTLQKTGGIAPLNQNQFTGGAMNTLSTGGVLQQQQPQTMNTFNTGGVMQELQMMTTFNTGGAMQQPQMMNTFNTDGIMQQPQMMNTFNTGGAMQQPQQQALQNQPTGFGFGNGPQQSRQANIFNATASNPFGF
For B2, the “Ratio (Deletedscore / WTscore)” value (bait BBC1) turned out to be 0.5353; the “Ratio (Deletedscore / WTscore)” value (bait LSB1) is on record as 0.9074; the “Ratio (Deletedscore / WTscore)” value (bait MYO3) was 0.6734; the “Ratio (Deletedscore / WTscore)” value (bait MYO5) came out at 0.8649; the “Ratio (Deletedscore / WTscore)” value (bait PIN3) came out at 0.824.

B3: YPR055W_1 (protein, UniProt P32855 1-1065, looked up)
Exocyst complex component SEC8: MDYLKPAQKGRRRGLSINSLSETQQSAMNSSLDHLQNDLNRINLQWNRILSDNTNPLELALAFLDDTSVGLGHRYEEFNQLKSQIGSHLQDVVNEHSQVFNTNVASYGKAVSSIMQAQEQTLNLKNCLKEANEKITTDKGSLQELNDNNLKYTKMIDVLVNIEELLQIPEKIEENIRKENFHQVQILLERGFILMNNKSLKTVEILKPINQQLELQEHLLFNNLIEEIHDIMYSKSNKTNFTRVTNNDIFKIISISHNGFTSLENYLYNIVNIDIMEHSKTINKNLEQFIHDQSLNKGNIMLQENAATQAPLAPSRNQENEGFNRIGFLLKTINNINKLPVAFNIITERAKEEIHNIIVKSTESIRSKHPSLLKMATSLKNDNHFGLPVQDILSIILRECFWEIFLKLLYAIQCHRAIFEMSNILQPTSSAKPAFKFNKIWGKLLDEIELLLVRYINDPELISSNNGSIKPINGATNNAPTLPKRKNPKIFSLEYNIEDNSSVKDQAFELKALLKDIFPGFSVSSNMDLDSIYVKDESFEQDEPLVPPSVFNMKVILDPFLLFTQSTSTIVPSVLTQNTISSLTFFDDYMNKSFLPKIQMTMDYLFTVEVESNNPYALELSDENHNIFKTALDFQRLFYNLLNVFNTANTFREKISYCILDLLNHFYNYYLGLFNSLIGTSDRHLTRKIITAWLQNGILMDQEQKILNGDETLFHEESIELFKEIPHFYQAGKGLSKSDLFNNLTLDTILQFSASVLWILNWLPGLKKAINIDEVSQEPMLDADRLRSSWTFSESMDLNYSNPSSSPNSLGNLKILLDDKASKKFDETIDGFKTLKFKLITILRFNIRALCIYDIGSFFQNTKIWNMDVGSIELDQNIASLISELRRTESKLKQQLPEKEKNSIFIGLDIVNNYALIKGAKSIKVLNHNGIKKMLRNVNVLQHAYRNLSSEPSKINMNVTMNFYSLCGSSEAELFEYIKDNELPHCSVEDLKTILRLQFSEEMHRQLKRQSTSSTKGSIKPSNKRYTEALEKLSNLEKEQSKEGARTKIGKLKSKLNAVHTANEK
Consider B3, for which the “Ratio (Deletedscore / WTscore)” value is, setting by setting: (bait ABP1) 0.936; (bait BEM1-1) 1.037; (bait BEM1-2) 0.6358; (bait LSB3) 0.783.

B4: YFL010C_1 (protein, UniProt P43582 1-211, looked up)
WW domain-containing protein …: MAQSKSNPPQVPSGWKAVFDDEYQTWYYVDLSTNSSQWEPPRGTTWPRPKGPPPGVNNEKSSRQQADQAPPPYSSQSTPQVQAGAQAQQPRYYQPQQPQYPQYPQQQRYYPQQAPMPAAAPQQAYYGTAPSTSKGSGHGGAMMGGLLGVGAGLLGGAMLEHAFDDHNYDGPDTVVVENNYYGDDAGGSDGGFDDAGGFDGGFDDGFDGSDF
On to B4, for which, for the setting “bait BBC1”, the “Ratio (Deletedscore / WTscore)” value came out at 0.6877.

B5: YFR024C-A_1 (protein, UniProt P43603 1-459, looked up)
LAS seventeen-binding protein …: MGINNPIPRSLKSETKKAAKILASFVKPNQVFGADQVIPPDVLKRAKGLAIITILKAGFLFSGRAGSGVIVARLKDGTWSAPSAIAMAGAGAGGMVGIELTDFVFILNTQDAVKSFSEFGTITLGGNVSVSAGPLGRSAEAAASASAGGVAAVFAYSKSKGLFAGVSVEGSAIIERREANRKFYGDNCTAKMILSGRIRPPPAVDPLFRVLESRAFNYRPSNGGRGSFDDDEDDYYDDDDYYNDIPSSFSSTDASSTRPNTRSTRRRAQSGSRYTFDDDDDDDDYGTGYSRNSRLAPTNSGGSGGKLDDPSGASSYYASHRRSGTAQSRARSSRNRWADDEYDDYDDDYESGYRRGNGRDRTKDREVDDLSNRFSKSRISSASTPQTSQGRFTAPTSPSTSSPKAVALYSFAGEESGDLPFRKGDVITILKKSDSQNDWWTGRVNGREGIFPANYVELV
Consider B5, for which the “Ratio (Deletedscore / WTscore)” value (bait BBC1) was found to be 0.507; the “Ratio (Deletedscore / WTscore)” value (bait BZZ1-1) is given as 0.736; the “Ratio (Deletedscore / WTscore)” value (bait HOF1) turned out to be 1.194; the “Ratio (Deletedscore / WTscore)” value (bait MYO3) is 0.7743; the “Ratio (Deletedscore / WTscore)” value (bait MYO5) was 0.8345; the “Ratio (Deletedscore / WTscore)” value (bait RVS167) is given as 0.8585.

For the origin of these results see paper PMC7954794, “Protein context shapes the specificity of SH3 domain-mediated interactions in vivo” (Nature Communications, 2021).
